From article PMC4592220, “Geminivirus Activates [sequence] LEAVES 2 to Accelerate Cytoplasmic DCP2-Mediated mRNA Turnover and Weakens RNA Silencing in Arabidopsis” (PLoS Pathogens, 2015)

B1: His-AS2 (… LEAVES 2) (natural protein)
chain: MASSSTNSPCAACKFLRRKCQPECVFAPYFPPDQPQKFANVHKVFGASNVTKLLNELHPSQREDAVNSLAYEADMRLRDPVYGCVGVISLLQHQLRQLQIDLSCAKSELSKYQSLGILAATHQSLGINLLAGAADGTATAVRDHYHHHQFFPREQMFGGLDVPAGNNYDGGILAIGQITQFQQPRAAAGDDGRRTVDPS
notes: full-length cDNA; The methods say the yeast SUMO tag was used to improve AS2 solubility; also called WT AS2
B2: GST-AS2 (… LEAVES 2) (natural protein)
chain: B1 chain
notes: full-length cDNA

Legend:
[1] = molecular target: B2; experiment: pull-down; 2 ug of GST/MBP/His/His-SUMO fusion proteins; binding buffer 50 mM Tris-HCl pH 7.5, 100 mM NaCl, 0.25% Triton X-100, 35 mM beta-mercaptoethanol, 2 h at 4 C, then glutathione sepharose 4B overnight; 6 washes; Western blot with anti-His, anti-GST or anti-MBP; conditions: both partners purified
[2] = molecular target: T1, DCP2, recombinant (Arabidopsis thaliana, UniProt Q8GW31 1-373); experiment: as above; conditions: both partners purified
T1 construct: mRNA decapping enzyme DCP2, Arabidopsis; full-length cDNA
T1 sequence: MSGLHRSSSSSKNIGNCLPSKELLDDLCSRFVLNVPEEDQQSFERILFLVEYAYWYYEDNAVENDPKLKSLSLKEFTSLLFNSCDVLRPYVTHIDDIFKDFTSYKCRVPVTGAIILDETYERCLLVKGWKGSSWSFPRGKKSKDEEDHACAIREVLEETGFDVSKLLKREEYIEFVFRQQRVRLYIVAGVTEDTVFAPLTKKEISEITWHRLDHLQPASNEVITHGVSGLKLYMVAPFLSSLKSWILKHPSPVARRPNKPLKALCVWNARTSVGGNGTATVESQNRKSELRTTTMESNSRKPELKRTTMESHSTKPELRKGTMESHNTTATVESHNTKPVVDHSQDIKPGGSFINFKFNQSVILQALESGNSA

B1: binds [1].

B2: binds [2].
